From the supplement of paper PMC9170038

Test system: MS2 coat protein
Experiment: apparent KD of MS2 coat protein; designed switch direction (-1 OFF switch, 1 ON switch): -1; higher = weaker reporter binding
Method in brief: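 Normalised cluster fluorescence was curve-fitted, and each design's median over clusters is its apparent KD. Before this, SNAP-549-labelled MS2 coat protein was titrated from 0.7 or 1.5 nM, doubling to 3 µM, over RNA switches transcribed on Illumina chips by stalled E. coli RNA polymerase. Titrations had no input, 200 uM small-molecule ligand, or an oligonucleotide input, and steps lasted 0.8–1.5 h (lowest) to 10–20 min (highest).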

[1] = Eterna round: R95, input ligand: FMN 200 uM
[2] = Eterna round: R95, input ligand: microRNA oligo, concentration not stated
[3] = Eterna round: R95, input ligand: none
[4] = input ligand: microRNA oligo, concentration not stated

Sequence | apparent KD of MS2 coat protein [1] [nM] | apparent KD of MS2 coat protein [2] [nM] | apparent KD of MS2 coat protein [3] [nM] | apparent KD of MS2 coat protein (input ligand: FMN 200 uM) [nM] | apparent KD of MS2 coat protein (input ligand: none) [nM] | apparent KD of MS2 coat protein [4] [nM]
UUUUUCAUCUAUGGGAGUGACAUGAGGAUCACCCAUGUGUGUCUUGUUUUUUGUUCGUCUAAGACUUUCUGAUCAGU [JR_SV3TOV1_Sub032] (puzzle: Sensor v3, turn-off variant 1) | 128 | 313 | 160 |  |  | 
CCUAAACAUGAGGAUCACCCAUGUGAGGAUAUGAUGCAGCAGUGGUCUACGCUGUGCAUCAGAAGGUACAUGGU (puzzle: Exclusion 1) |  | 73.4 |  |  |  | 
GGAAAACAUGAGGAUCACCCAUGUGAGGAUAUGCGUACGUUGUCCGUAGGCGACGUGCGCAGAAGGCGCAAGAG [Mat - Mod of JL D89] (puzzle: Exclusion 1) | 57.4 | 48.5 | 58.1 |  |  | 
AGCCAUACAGGAUAUGCCCGGGAUAACAUGAGGAUCACCCAUGUGACCGAUUCAUGUCCUGCAGAAGGGUAUGGGA [Mod of ViennaUCT 3 - Jieux - Exclusion 5] (Eterna round: R97, puzzle: Exclusion 5) |  |  |  | 31.7 | 16.8 | 
GCACUGCGAGGAUAUACAUGAGGAUCACCCAUGUGUCGGCAGCCAUGCCAGUACAAAUGUAGAAGGCGCGUAAA [EX3 #55] (Eterna round: R97, puzzle: Exclusion 3) |  |  |  | 88.1 | 27 | 
CUAUUCCGAGGAUAUACAUGAGGAUCACCCAUGUCGGGCCUCCGCGUUUAGCGCCUCAGUAGAAGGCGGGUUUC [JL Riri mod 2] (puzzle: Exclusion 3) |  | 17.2 |  |  |  | 
ACAUGAGGAUCACCCAUGUCUGGCUGGUCCGUCUCGGCUGUCGAGGAUAUAGCUCGGUGUCCGCGCUAGAAGGCGGGAGCUGGC [Aenatbe mod 81] (Eterna round: R96, puzzle: Exclusion NG 3) |  |  |  | 135 | 81 | 52.2
GCGCCAUCGUGAGAUGGCGUAAUUACAUGAGGAUCACCCAUGUAGGAUAUCGAUUGCUUUGCAGUCGAGAAGGGCAUGUAUAAU [JL ENG3 3.94] (Eterna round: R96, puzzle: Exclusion NG 3) |  |  |  | 45 | 37.9 | 26.5
AAUAACAGAGGAUAUACUGUUUUAUGUGUUUAUUAUUUUGAACAUGAGGAUCACCCAUGUAGAAGGCUGAAUGA [JMF 63] (puzzle: Exclusion 2) |  | 27.6 |  |  |  | 
AAAUUAGCAAGUAGGUCCGACAUGAGGAUCACCCAUGUAAGCUAAUCUUACGCUGCAUGAGAGUGCGCUCGUCUUAA [Sensor-V1 #19] (Eterna round: R97, puzzle: Sensor, turn-off variant 1) |  |  |  | 360 | 515 | 
GCGCAGGUAGGAUAUCGAGCUAAGAACAUGAGGAUCACCCAUGUGUUCGGUAGCCAACUUCGAGAAGGACCAAAUA [Ceati] (puzzle: Exclusion 5) | 23.9 | 11.4 | 14.9 |  |  | 
GGAGGACGAGCAGGAUAUUUUUACAUGAGGAUCACCCAUGUGUAAUCAGGGUAAUCCUCCGCCGAAAAGAAGGGUUCGGAAGAA [Mat - Exclusion NG 2 - Mod of JL - D83] (Eterna round: R96, puzzle: Exclusion NG 2) |  |  |  | 2750 | 67.6 | 16.9
AGUAACUAUCACGAAAGUGAUAGUUACACAAGCAGUGAAACAUGAGGAUCACCCAUGUCCUCAUAUGCUCGUCUUAU [Sensor 3 - 30] (puzzle: Sensor v3, turn-off variant 2) | 119 | 1280 | 114 |  |  | 
ACUGUGUAAGGAUAUGUGAUACACUGCUAUUUAGGUGAGUCACAGAAGGUACAUGAGGAUCACCCAUGUCCGGG [Eternabot (L2) Solution 32] (Eterna round: R97, puzzle: Exclusion 4) |  |  |  | 222 | 172 | 
GACAAGGGAGGAUAUGCACAAGGGAUAUCUGACAUGCCGUUACAUGAGGAUCACCCAUGUAGAAGGCCCGAAUA [Didiin] (puzzle: Exclusion 2) |  | 13.3 |  |  |  | 
AUAAAGCAAGCAUGGUCCCACAUGAGGAUCACCCAUGUGUUCGUCUUAUAGGCUGCUGUGGCUUUUGCCUCGUUGGC [LRO Sensor-off var1-09 loose mod of D91 from Mat747] (Eterna round: R97, puzzle: Sensor, turn-off variant 1) |  |  |  | 41.6 | 46 | 
GCACGAAGUGUAGGAUAUCUGUGCGAUUAGCUCAGAGAAGGACACAUGAGGAUCACCCAUGUGUUCCACGGAAACGAAACGUGC [Eli exng1 - 053] (Eterna round: R96, puzzle: Exclusion NG 1) |  |  |  | 9.14 | 11.9 | 8.47

Sequence | apparent KD of MS2 coat protein [1] [nM] | apparent KD of MS2 coat protein [2] [nM] | apparent KD of MS2 coat protein [3] [nM] | apparent KD of MS2 coat protein (input ligand: FMN 200 uM) [nM] | apparent KD of MS2 coat protein (input ligand: none) [nM] | apparent KD of MS2 coat protein [4] [nM]
CAGGUCCGAGGAUAUAUUAUGUGAAACAUGAGGAUCACCCAUGUUAUAUGAUGGAUGUAAAUAGAAGGCGGACUUG [Mat - Exclusion 5 - JL mod - D64] (puzzle: Exclusion 5) | 23.9 | 29.3 | 35.3 |  |  | 
CCGGCUGCUGUGAGGAUAUGCCCGCGCGCCCGCGGGCAGAAGGCACAUGAGGAUCACCCAUGUCCUGCGGUCCC [salish99_bmx4_r4_120] (Eterna round: R97, puzzle: Brourd's mod of Exclusion 4) |  |  |  | 122 | 24.1 | 
UUGUUAUGUGUAGGAUAUGCGUAUUAUUAUUAUGCAGAAGGACAUGAGGAUCACCCAUGUGUAUUGUUAUUAUAUAUUAUAUAU [Title] (Eterna round: R96, puzzle: Exclusion NG 1) |  |  |  | 32.1 | 21.9 | 16
UCCUGGCGAGGAUAUACAAAGAUUUUUUCGUUUUGUCUCGAACAUGAGGAUCACCCAUGUAGAAGGUGCUGCUG [JR_Ex2_Sub014] (Eterna round: R97, puzzle: Exclusion 2) |  |  |  | 50.3 | 52.2 | 
CCAGCGUAUGUGAGGAUAUGCUGGUCCUUGGAUCAGCAGAAGGCACAUGAGGAUCACCCAUGUGGAAACGUUGA [Mod of JL 2 - Jieux - Brourd's mod of Exclusion 4] (Eterna round: R97, puzzle: Brourd's mod of Exclusion 4) |  |  |  | 44.9 | 19.9 | 
CUGAGAAUAGGAUAUACUAACAAUGGAGUAGCUUCACGUCAACAUGAGGAUCACCCAUGUAGAAGGGUUAGCGG [Eternabot (L1) Solution 33] (Eterna round: R97, puzzle: Exclusion 2) |  |  |  | 25 | 30 | 
GACGUGUGAGGAUAUCCGAUGCCGGUCCGGAAGGUUCGGGUGGAGAAGGCACAUGAGGAUCACCCAUGUGUAAG [Excls4-VII] (puzzle: Exclusion 4) |  | 16.4 |  |  |  | 
AACAAGCUUUUAAGAUGAAAGAUAGUAGGUAGCUCCUUUACAUGAGGAUCACCCAUGUUUGUGUAGCUCGAUCUUAU [JR_SV3TOV2_Sub076] (puzzle: Sensor v3, turn-off variant 2) | 12.3 | 37.4 | 11.5 |  |  | 
ACAUGUCCUGAGGAUAUCAAAGUCCUCCCGACAUGAGAAGGCAGGACAUGAGGAUCACCCAUGUGGAGCAGGGA [Aarorbeti] (Eterna round: R97, puzzle: Exclusion 6) |  |  |  | 420 | 111 | 
CAGCUGAAUGUGAGGAUAUGUCGAGCCUCGGCUCGAUAGAAGGCACAUGAGGAUCACCCAUGUCUCAACAGCUG [BmEx4/2-C2] (Eterna round: R97, puzzle: Brourd's mod of Exclusion 4) |  |  |  | 258 | 34 | 
AAAACUCACGUAGGAUAUCAUUCCUUAAGGUAGUGAGAAGGACGUGACUACAUGUCCUUGAACAUGAGGAUCACCCAUGUAGGC [Cerama] (Eterna round: R96, puzzle: Exclusion NG 1) |  |  |  |  |  | 36.5
GACGUGUUAGGAUAUAGCUCUCGGGACAGCAAUGAUCCGAGUUAGAAGGAACAUGAGGAUCACCCAUGUUAUUU [Eternabot (L2) Solution 60] (Eterna round: R97, puzzle: Exclusion 4) |  |  |  | 18.4 | 21.1 | 
AAUUAAGCAAGCAGAUCCCACAUGAGGAUCACCCAUGUGCUCGUCUUAUAAGGUACUGUGACGAAAGUCACGGUACC [Mat - Sensor, turn-off var - Eli Mod - D72] (Eterna round: R97, puzzle: Sensor, turn-off variant 1) |  |  |  | 129 | 120 | 
GGUACUCAAAGAGUACCAAUACGAACAUGAGGAUCACCCAUGUAGGAUAUGCUACUCAAAGAGUAGCAGAAGGAUAUGAACCUU [Far Half Aptamer v9] (Eterna round: R96, puzzle: Exclusion NG 3) |  |  |  | 22.5 | 23.8 | 15.5
AAAAAACAUGAGGAUCACCCAUGUGAGGAUAUCUGUAUUCAAUCCUCGGAUUGAAUACAGAGAAGGCACAUGGG [Ex1: 609] (Eterna round: R96, puzzle: Exclusion 1) |  |  |  | 48.5 | 27.8 | 29.2
UUUUGGCAAGCGAGAUCCGACAUGAGGAUCACCCAUGUGCGGGCCCGAAAAGGGCCCGCGGUUGCUCGUCUUGUGUG [free energy optimized] (Eterna round: R97, puzzle: Sensor, turn-off variant 1) |  |  |  | 15.7 | 16.9 | 
AAGAAACAUGAGGAUCACCCAUGUGAGGAUAUGAAAAAUAAAAGAAAAGAAAUAAUAAUCAGAAGGCACAAAGG [Mat - Mod of Hog D9] (puzzle: Exclusion 1) | 43 | 26.6 | 28.9 |  |  | 
